Measurements as given in the NTF2 design screens of Basanta et al. (2020).

Experiment: protease stability score; higher = more stable; yeast display proteolysis, trypsin and chymotrypsin;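 note: relative to predicted unfolded state with 0 unfolded-like and 1 meaning tenfold more protease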

Q: For “DEEHKELRRAWEQLIHDIKTGDEESFKRLADPDVQVRVGDKVEHGREATERWLRQVDHIKHFEEKRIHIYDGRVELKGRVTGVINGRELNTEIDFEIVYIDGKLHRIRIHFR”, which protease stability score is on record?
A: The protease stability score was 1.09.

Q: For “HEDEKEAEDAVREFLHNVSTGDEERMLELMDPNARLIYNGREYHGRELITHLIRELGVKVVRWRHLEVQGEKVHVDLRDTVGDKTIKTHLIFHKINGKWKVDEVKFD”, which protease stability score is on record?
A: The protease stability score was 2.26.

Q: For “SEEMHWAKEFYKALLKSWRTGDEELIKDLMDPHVRLHYGDKELHGREEFVRFIQEHVSRVDHIDIHIDDMKLQGNKVHVDGIIIIHVNGRDINIRSEYIIYKVDGRWHLETVHIH”, which protease stability score is on record?
A: The protease stability score was 1.59.

Q: Which protease stability score does the source give for “SHVEELSHEVTRWVDIALQTGDERVIDEYLDPNARIDVGDKHFIGREEMSEFYSEFSRRVKNLKLSRYHKKDERIIGNKVILHGKLNVNINGRSHEIDTEIVSMKVNGRWLVEKEIVN” here?
A: The protease stability score was 0.302.

Q: Which protease stability score does the source give for “SEEEEHLLKWFEELITLLLTGDEDRLSELMDPNVRIEIGDKTLVGMEWANHDYTRKIRERGWRIEIIIRELRAQGDKVRARTELRIRFDGREITYETEMILVVVNGRFKRIETRVH” here?
A: The protease stability score was 1.46.

Q: For “DERHRYMKLFLDIFLHLYQTGDWDKLEHLADPHVKLIFENHELHGRDSFFRFILEWLRHMGVNHVEFHNIHYDLVGDKVHLEVRLIVFINGRIHHVIIHIIAEKIDGKWHLRSHEIRHE”, which protease stability score is on record?
A: Its protease stability score is 1.34.

Q: With “DDEERLIKHLAERWMKDLHTGNEDSLEEMADPNWRLRQIVNGQEVRDIGREKMIEVIREIEKKLGIDRIELHVHKVEIQGDKAHLNTEIRYNGQSSLHEIRLTIINGRLHSVTIHVK” as the sequence, how does the protease stability score read?
A: Its protease stability score is 0.85.

Q: With “SEDEKVALEMLEWLSTARRTGDEHVMRELIDPHTRLHYGDKIYIGRDHVIELLLQLRVHIHHVELTHFESVGDKIKLHTEEDGHIDIDGRHHRVIIHTTMYARKFDGQWHTEEIRIH” as the sequence, how does the protease stability score read?
A: Its protease stability score is 1.93.

Q: For “SDEQEISEFILRIWLELVLTGDEKMMKKLFDPNTRFEINGVDIHGMESIAEHLLREREEWRSHITLTDREIQGDKVRVHTILKVDINGQHLRHHTRIIIIIINGRIHSIHIRVE”, which protease stability score is on record?
A: The protease stability score was 0.673.

Q: Which protease stability score does the source give for “DEETRDLHHALRIVLHILRTGDFSHLFEYADPHVKIDINGKEVHGMEQMHHEIERLYFELGVDNVTVQHKRIIVYDGRVLVHMISHIGDKWRDIIIIFLKVNGRWRLHSIEVK” here?
A: Its protease stability score is 1.72.

Q: With “DEHERLAEIALRLYVHDIRTGDEHRLRKLFDPHVRFVIGDKVYHGWEEMKWILEHIRRELGVKHIKDEDSRHVHLQGDKMYTELRLHVNQGDYETELEVFMVSVKVNGQWLTHSFELR” as the sequence, how does the protease stability score read?
A: The protease stability score was 1.21.

Q: For “SEIEKMFHIALKLWVRTMKTGDFEDLLRLLDPNWRLEVNGRTHHGREELEHEIRELGIDQFHLHHIEHKEFLVQGEKITIDGRINGEFNGVQYNTRVIIIAKKINGRWVLHSEEIK”, which protease stability score is on record?
A: The protease stability score was 1.37.

Q: For “DEHEEQIEEFWRITVDQWMTGNEELIETYLDPNARVDINGKQTHGREQVTRLMLREMKHMRIKSIKLRRVRIVDGRVDLDGTLHGEVNGREFVLESHVHAEKFDGRWLIRTIKVN”, which protease stability score is on record?
A: The protease stability score was 2.23.

Q: For “EEEDDVLHEFLREFIHFFSTGDFDHIIEMLDPNTQQHVGDKINIGREEWKHWLKFHLDRLGVDQVRVHVRRVRFFNGRVELNIELRQGDYVFDARILALKVDGRWLLESVEIK”, which protease stability score is on record?
A: The protease stability score was 2.82.

Q: With “DEETRDFDVAFMYFILFEKTGDERELLELLDPDARMVVGDKRRVGRESVLHFMREHLRTLGFKHVEDIELHDFKVYDGRIELDIRVRGRVNGKTHTLTYLMIAHKVDGRWFIHSLEVR” as the sequence, how does the protease stability score read?
A: Its protease stability score is 2.14.

Q: For “SEEEFFTEMALRIYIELFETGDEHLIERLADPNVIIDFNGREFIGREYFSRIFHFLRRHWRMRDVTLKDWRVFDGRLHMEVQLYGKVNGQETQRDTHLVSTKINGRWRIHSDKWD”, which protease stability score is on record?
A: Its protease stability score is 1.25.

Q: With “SEDEKRLLDLAKEWIHNWLTGDEESMQKLADPSTRYEIGDKELHGMEEVNRSIKISLDELRVKHIDIERVKAINGVVTIHTRIDVEFNGKRMIIETIIRIDIFNGRIKQVWVEFR” as the sequence, how does the protease stability score read?
A: Its protease stability score is 1.21.

Q: Which protease stability score does the source give for “DETRETLERFWHILVRAEKTGDERIFYEMLDPNAQLNVNGRTFHGREILVKIFHEWRVHDSEIREIDIQGDKVDMHVHSDIQVGDKRIRTDMRIIMVKIDGKWLIRTLKVE” here?
A: Its protease stability score is 2.16.

Q: With “DEKEHFAKWFIHVLIRHWYTGDEETTHRLADPNARYEIGDKELIGMDELFRHLEQLRVDSIDYRVEDIRFQGEKIHIHGKIRVEGVVNGQHFHLTFDLILHVEKINGRWHFREMQTR” as the sequence, how does the protease stability score read?
A: Its protease stability score is 1.25.

Q: With “NEHKEEALHALQLWLRYYETGNEDSLREMLDPNVRVVINGKELHGMELFLDYIVDTRDRIKGLRIIIDDIEIHYVGDKVHVNIRGISYFNGREHEVEINIFSRKINGKWYLSSLELRVN” as the sequence, how does the protease stability score read?
A: The protease stability score was 2.55.

Q: Which protease stability score does the source give for “DEEKERMFEHWEDVLRDWYTGNEDNLRHLFDPHARTDVNGVELHGMDLISEVLRRHLEEIRIKSMHLRELRSVDGRIHEHGELRGRVNGVDVRREVRVHLTVVNGRMKEMRFENI” here?
A: The protease stability score was 0.394.

Q: Which protease stability score does the source give for “DERNDRAREYVELWEDALRTGDEHILMELADPHTRIEIGEFEIIGREEIMRFMNEIRVHVRESRIKRVTEIDGVLFADIHVRREFRFDGRSKEVRTDVIIIFNKFDGKWLLESVHVK” here?
A: Its protease stability score is -0.01.

Q: Which protease stability score does the source give for “DDREKDSKREVKEFLEMFITGDEERWSKMADPNVRLHFDGVESHGREEALRIMRLLLEQFKNLKVTDVQLTSIEIQGEKALIRTRIHTEVNGKEDSLDVILFATKFDGRWIINSIEIR” here?
A: Its protease stability score is 1.1.

Q: For “DEDTRDTEIAFELLLRHMYTGDWHLVERMLDPNVRVHQGDFHTVGWEDFVRISLEARLHDMRIHQVRSQGDFVEIDGHVDFEINGKRIRVRTILIVLKVNGRWFLKSIEIR”, which protease stability score is on record?
A: The protease stability score was 1.23.

Q: With “SEEEEIYKEYAELMIHIIKTGDEDALRLLLDPNTQTFINGRNIHGMDEHIRHWRHFFKKFKNMRIEITRLEIQGDKVRIHMRIEQGDKILHLLFIIVIINGRNEEIEVRIHTQ” as the sequence, how does the protease stability score read?
A: Its protease stability score is 1.69.

Q: Which protease stability score does the source give for “DEDEKLSKFAIDNFIQLMLTGDEDSLLHLADPNARLHFNGVEIHGMEEVQERLMRERKERGVRIHSIHIEHIDIQGDWIIVHMHITQRVNGKEESIERILILLKINGRWHLHQIRLH” here?
A: The protease stability score was 1.28.

Q: Which protease stability score does the source give for “SEHEEHVRSAIERLSHAWRTGNEELFKELVDPHTRFIYGNKNMHGWEISEFFRRRVKGMTLHEVDIHHVEVINGRVHVNSILRGEINGKDTFEDHELHARKVDGRWVVTEMTIR” here?
A: Its protease stability score is 0.732.

Q: With “DEIEKEMLKRARDILENWVTGDEDEFNRLADPNVRFELVYGDKSHSHHGMENLKKWLEEWTKRVDHFDLKIKSQRVVGDKAETETKLILNYDGRRFEHDTRIDVVVVNGRIKQIRVEIR” as the sequence, how does the protease stability score read?
A: Its protease stability score is 1.59.

Q: For “SHHEEHLKRLESFLLEATDTGDEDFLTKLIDPHVKLDIDGVELHGREDWLKYFLDLGVDHVRITSSRDINGRLHLTTRMHIGDKITETRVHSEKFDGQWVIKEIIIH”, which protease stability score is on record?
A: The protease stability score was 0.823.

Q: With “DEDHRDMEEFMRIFIDSLKTGDEESLARMLDPNARTKVNGVDFHGRESALEVLRRLWEEFGVDHMELKSREVEVQGNKVHIHLVVTLIQGDKHIHVRYHINTIKVDGRWLLHEINVEIR” as the sequence, how does the protease stability score read?
A: Its protease stability score is 1.36.

Q: Which protease stability score does the source give for “DDEEKLSKDASELWKKSMLTGDEDTLMKLADPHTRLEIRIGDKTDEIHGMEWVAHLLTNLGIDHFILRDEHIQGEKVIIRGEIDINGRTHESIIIVIIINGRLKSVTFIKL” here?
A: Its protease stability score is 0.94.

Q: Which protease stability score does the source give for “SDEDHSSHLAHRWLLEILETGDEERLLRLADPNYRLDVDGRRFIGREDLLRWMKHVVERADHIELRDHHVDNQGDKVSSDVIVNERFDGKTERYRTHIVINKFDGKWVFHRFKIK” here?
A: Its protease stability score is 0.928.

Q: With “REEEELLKKLADHWWENVRTGDERRMRELFDPNTQFVIEVGDKKFTRHGRDELVHSLEHARIHDFHIKDQRPQGDFIEVEGEIDGEIDGRRFRTDVRVWIVIVNGRLKQIHIHVG” as the sequence, how does the protease stability score read?
A: The protease stability score was 1.15.

Q: Which protease stability score does the source give for “DERTKSYELALRIIEHVNKTGDEEMSTHMADPNARVVQGEKEIHGRELFIRWMKEIRVEDIKHRDKTIIGDKLILRVDIHGIIDGRHEDFHVILIVTKVNGRWHLEEVRIH” here?
A: The protease stability score was 1.36.

Q: For “DEETREAKEAFDIIIKHIETGDEDLLSEMLDPNVRINQGEFRIHGREAVEEWLNYMLHHMRVHVRSEEVRVVGDKVESDFRVQINQGDKIYHHDTRLFLFKIDGRWFIESMEFH”, which protease stability score is on record?
A: Its protease stability score is 1.36.

Q: With “DEQTELEDKMRELIMRTWDTGDEKLLQELADPDARAHFNINGQTDSRHGREEILRLFIKLWEILGVDHLHLQHVSVIDGKFHIHQEVRYDGKVTFLHIHVWIVNGRNRQFNVHIEHR” as the sequence, how does the protease stability score read?
A: Its protease stability score is 0.407.
